Test results from patent US20210380703A1 (RIGEL PHARMACEUTICALS, published 2021).
Positions count from the first letter of the chain named.

B1: 371_A09 (antibody, V domains shown)
VH: EVQLLESGGGLVQPGGSLRLSCAASGFTFSSYGMNWVRQAPGKGLEWVSGINYNGGYKSYADSVKGRFTISRDNSKNTLYLQMNSLRAEDTAVYYCARAANWHDTALDYWGQGTLVTVSS
VL: DIQMTQSPSSLSASVGDRVTITCRASQSIVTYVNWYQQKPGKAPKLVIYAATSRASGVPSRFSGSGSGTDFTLTISSLQPEDFATYYCQQSYDSPLTFGGGTKVEIK
notes: Group I
B2: 372_D07 (antibody, V domains shown)
VH: B1 VH with S49A, K58T, N101T, A106H
VL: B1 VL with V30L, T31S, V33L, V47L, D93E
notes: Group II
B3: 371_F07 (antibody, V domains shown)
VH: B1 VH with N35H, S49A, K58T, N101T, A106H
VL: B1 VL with V30L, V33L, V47L, R54L, Y92D, D93S, S94N
notes: Group II
B4: 374_A12 (antibody, V domains shown)
VH: B1 VH with S30D, N35H, G50S, K58T, N101T, A106H
VL: B1 VL with V30L, V33L, V47L, Y92D, D93S, S94N
notes: Group II
B5: 374_B01 (antibody, V domains shown)
VH: B1 VH with S30D, N35H, S49A, G55S, K58T, N101T, A106H
VL: B1 VL with V30L, T31S, V33L, V47L, T52S, R54L, A55Q
notes: Group II
B6: 375_C03 (antibody, V domains shown)
VH: B1 VH with S30D, G33S, N35H, K58T, N101T, A106H
VL: B1 VL with V30L, T31S, D93E
notes: Group II
B7: 371_G07 (antibody, V domains shown)
VH: B1 VH with S31D, N35H, S49A, K58T, N101T, A106H
VL: B1 VL with T31S, D93S, S94L
notes: Group II
B8: 373_E11 (antibody, V domains shown)
VH: B1 VH with S30D, N35H, S49A, G50S, K58T
VL: B1 VL with T31S, V33L
notes: Group I
B9: 371_H02 (antibody, V domains shown)
VH: B1 VH with S30D, S31D, G33S, A106H
VL: B1 VL with V30I, T31S, V33L, R54L, D93E, S94N
notes: Group I
B10: 374_F03 (antibody, V domains shown)
VH: B1 VH with S49A, G50S, K58T, A106H
VL: B1 VL with V30I, T31S, S94T
notes: Group I
B11: 373_D11 (antibody, V domains shown)
VH: B1 VH with N35H, S49A, K58T, N101T, A106H
VL: B1 VL with V30L, V47L, S94N
notes: Group II
B12: 373_B01 (antibody, V domains shown)
VH: B1 VH with S30D, N35H, N101T, A106H
VL: B1 VL with V30L, T31S, S94L
notes: Group II
B13: 372_E02 (antibody, V domains shown)
VH: B1 VH with S49A, G50S, K58T
VL: B1 VL with V30I, T31S, S94L
notes: Group I
B14: 375_D02 (antibody, V domains shown)
VH: B1 VH with G33S, G50N, K58T, N101T, A106H
VL: B1 VL with V30L, V33L, V47L, T52S, R54L, A55Q, D93E, S94L
notes: Group II
B15: 374_B07 (antibody, V domains shown)
VH: B1 VH with N35H, G50S, N101T, A106H
VL: B1 VL with V30I, T31S, V33L, V47L, R54L, D93E
notes: Group II
B16: 371_C02 (antibody, V domains shown)
VH: B1 VH with S30D, N35H, S49A, G55S, K58T, S59G, N101T, A106H
VL: B1 VL with V30L, V47L, T52S, R54L, A55Q, S94T
notes: Group II
B17: 374_B02 (antibody, V domains shown)
VH: B1 VH with S30D, G33S, N35H, S49A, G55S, K58T, A106H
VL: B1 VL with V30I, T31S, V33L, V47L
notes: Group I
B18: 371_D05 (antibody, V domains shown)
VH: B1 VH with S30D, S31D, N35H, K58T, N101T, A106H
VL: B1 VL with V30L, V33L, V47L, T52S, R54L, A55Q
notes: Group II
B19: 372_B11 (antibody, V domains shown)
VH: B1 VH with G33S, N35H, S49A, G55S, K58T, A106H
VL: B1 VL with V30L, R54L, S94T
notes: Group I
B20: 371_B02 (antibody, V domains shown)
VH: B1 VH with S30D, G50N, K58T, N101T, A106H
VL: B1 VL with V30L, R54L, D93N, S94N
notes: Group II
B21: 375_C10 (antibody, V domains shown)
VH: B1 VH with N35H, S49A, G50S, K58T
VL: not shown
notes: Group I
B22: 371_B11 (antibody, V domains shown)
VH: B1 VH with G33S, N35H, S49A, G50S, G55S, K58T, N101T, A106H
VL: B1 VL with V30L, V33L, V47L, D93E, S94L
notes: Group II
B23: 373_G06 (antibody, V domains shown)
VH: B1 VH with N35H, S49A, G50S, G55S, K58T, S59G, N101T, A106H
VL: B1 VL with V30L, T31S, V47L, R54L, D93N, S94L
notes: Group II
B24: 374_H02 (antibody, V domains shown)
VH: B1 VH with N35H, S49A, G50S, K58T, N101T, A106H
VL: B1 VL with V30L, T31S, V47L, R54L, S94T
notes: Group II
B25: 372_A09 (antibody, V domains shown)
VH: B1 VH with S30D, K58T
VL: B1 VL with V30L, T31S, V33L, D93N
notes: Group I
B26: 371_D12 (antibody, V domains shown)
VH: B1 VH with S30D
VL: B1 VL with V30L, T31S, V33L, V47L, D93E, S94L
notes: Group I

molecular target: T1, biotinylated goat anti-human kappa light chain; test: ELISA, positive control
T1 construct: positive control of the ELISA
Procedure, shortened: (§1)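 Monoclonal antibodies were first applied to human or mouse ACVR2A, alongside biotinylated goat anti-human kappa light chain (positive control) and human Fc (negative control); binding was then determined by ELISA.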
Note: test concentration or dose not given here.

optical density [OD] | Binder
3.62 | B1
3.7 | B2
3.34 | B3
3.06 | B4
2.92 | B5
3.16 | B6
3.41 | B7
3.17 | B8
3.62 | B9
3.23 | B10
3.2 | B11
3.11 | B12
3.58 | B13
3.2 | B14
3.29 | B15
3.66 | B16
3.02 | B17
3.44 | B18
3.73 | B19
3.59 | B20
3.33 | B21
3.59 | B22
3.23 | B23
3.18 | B24
3.5 | B25
3.44 | B26

molecular target: T2, human ACVR2A (human, UniProt P27037 20-135, limits assumed); test: ELISA
T2 construct: also called activin receptor, type II A
T2 sequence (P27037 20-135 limits assumed): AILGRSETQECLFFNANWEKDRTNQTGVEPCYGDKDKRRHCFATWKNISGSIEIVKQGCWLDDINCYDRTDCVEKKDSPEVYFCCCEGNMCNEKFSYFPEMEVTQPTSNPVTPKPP
Procedure, shortened: as §1

optical density [OD] | Binder
1.85 | B1
2.68 | B2
2.78 | B3
3.31 | B4
3.14 | B5
3 | B6
2.8 | B7
3.3 | B8
1.88 | B9
3.53 | B10
3.57 | B11
3.26 | B12
2.84 | B13
3.63 | B14
3.71 | B15
2.92 | B16
3.42 | B17
2.72 | B18
2.31 | B19
2 | B20
3.46 | B21
3.18 | B22
3.4 | B23
3.26 | B24
2.43 | B25
1.89 | B26

molecular target: mouse ACVR2A (mouse, UniProt P27038 20-135, limits assumed); test: ELISA
Sequence (P27038 20-135 limits assumed): as the sequence (P27037 20-135 limits assumed) above, with K20R, V73I counted along it
Procedure, shortened: as §1

optical density [OD] | Binder
2 | B1
2.99 | B2
2.89 | B3
3.26 | B4
3.37 | B5
3.24 | B6
2.99 | B7
3.36 | B8
2.03 | B9
3.62 | B10
3.55 | B11
3.58 | B12
2.74 | B13
3.56 | B14
3.71 | B15
2.88 | B16
3.54 | B17
3.11 | B18
2.58 | B19
2.28 | B20
3.6 | B21
3.26 | B22
3.52 | B23
3.26 | B24
2.56 | B25
2 | B26
